This passage reports fraction unconjugated results from article PMC8288147.

A value given as a limit tells only on which side of the number the result lay.

The target in the test is Hepatitis B Surface Antigen (HBsAg) SpyCatcher nanoparticles (Hepatitis B virus). Nature of the test: covalent SpyTag/SpyCatcher conjugation shown by reduced SDS-PAGE.

As for “RBD-SpyTag (SARS-CoV-2 receptor binding domain fused to the SpyTag peptide) (from UniProt P0DTC2) (domain or fragment)”, the fraction unconjugated was < 20%.
